# Patent publication US20240197828A1, “Chimeric molecule to treat sepsis and other inflammatory conditions” (THE FEINSTEIN INSTITUTES FOR MEDICAL RESEARCH, priority 2022, published 2024)
# B1: milk fat globule-epidermal growth factor—factor VIII (protein, listed as Mus musculus)
# chain: MQVSRVLAALCGMLLCASGLFAASGDFCDSSLCLNGGTCLTGQDNDIYCLCPEGFTGLVCNETERGPCSPNPCYNDAKCLVTLDTQRGDIFTEYICQCPVGYSGIHCETETNYYNLDGEYMFTTAVPNTAVPTPAPTPDLSNNLASRCSTQLGMEGGAIADSQISASSVYMGFMGLQRWGPELARLYRTGIVNAWTASNYDSKPWIQVNLLRKMRVSGVMTQGASRAGRAEYLKTFKVAYSLDGRKFEFIQDESGGDKEFLGNLDNNSLKVNMFNPTLEAQYIKLYPVSCHRGCTLRFELLGCELHGCSEPLGLKNNTIPDSQMSASSSYKTWNLRAFGWYPHLGRLDNQGKINAWTAQSNSAKEWLQVDLGTQRQVTGIITQGARDFGHIQYVASYKVAHSDDGVQWTVYEEQGSSKVFQGNLDNNSHKKNIFEKPFMARYVRVLPVSWHNRITLRLELLGC
# Experiments:
# [1] = system: murine peritoneal cavity (PerC) macrophages; test: eCIRP-induced cytokine release in peritoneal cavity macrophages; format: cell-based, mouse; details: WT PerC macrophages, eCIRP treatment
# Method: Murine peritoneal cavity (PerC) macrophages were isolated from adult, WT mice and MFG-E8“ ” mice. Briefly, mice were euthanized using CO2 asphyxiation. Peritoneal fluid and cells were isolated using peritoneal lavage by washing ice-cold Ca^+2 and Mg^+2 free Hank's Balanced Salt Solution (HBSS) with 2% fetal bovine serum (FBS, Solon, Ohio). Total PerC macrophages were isolated by centrifugation at 400 g for 10 minutes at 4° C. After centrifugation, the cell pellet was suspended in culture media containing RPMI 1640 (Invitrogen) supplemented with 25 mM HEPES, 2 mM glutamine, 10% FBS, penicillin (100 IU/mL) and streptomycin (100 IU/mL). PerC macrophages were allowed to adhere in 6-well plates for 4 hours in humidified incubator at 37 °C. […] Adhered PerC macrophages were then mechanically detached from the plate and counted. […]
# (§1) The mouse macrophage cell culture supernatants were analyzed for cytokine levels using ELISA kits (BD Biosciences, CA). […] TNF-α and IL-6 levels were measured in cell supernatants by ELISA in accordance with respective manufacturers' instructions (BD Biosciences, CA). Blood was collected, centrifuged at 4,000 RPM for 10 minutes, and sera was separated and analyzed for cytokine levels using ELISA kits (BD Biosciences, CA). TNF-α and IL-6 levels in the serum were measured by ELISA in accordance with respective manufacturers' instructions.
# [2] = system: WT mice; test: Sterile eCIRP-induced inflammation by rmCIRP injection in mice; format: in vivo, mouse; details: 4 hours, vs eCIRP alone
# Method: FIG. 5A-5B. eCIRP-induced inflammation is attenuated by MOP3. WT mice were treated according to respective groups: PBS (volume equivalent), rmCIRP (5 mg/kg), or MOP3 (10 μg/kg) co-incubated with rmCIRP (5 mg/kg) for 30 mins prior to r.o. injection. After 4 hours, serum was measured for IL-6 (A) and TNFα (B) levels by ELISA. All experiments were performed 3 times, and all data were used for analysis (N=7-10). Data are expressed as mean±SEM and compared by one-way ANOVA and SNK test. *p<0.05 vs. PBS, #p<0.05 vs. eCIRP.
# Adult (8-12 weeks) male, C57BL/6 wild-type (WT) mice (20-30 g) were purchased from Charles River Laboratories. MFG-E8 knockout mice (MFG-E8^−/−) were originally obtained from Dr. Shigekazu Nagata, Osaka University of Japan, and bred following our Institutional Animal Care and Use Committee (IACUC) policies. Age-matched, healthy mice were used in all experiments. Animals were randomly assigned to sham, vehicle, or treatment groups. Concerted effort was made to ensure that a limited number of animals were used in each experiment. […] For the design of in vivo models, sample size calculation was driven by variability, effect size, significance level and power as determined through performance of early feasibility and optimization pilot studies. […]
# as §1
# Serum levels of aspartate transaminase (AST), alanine transaminase (ALT), and lactate dehydrogenase (LDH) were determined using calorimetric enzymatic assays (Pointe Scientific, Canton, MI) according to the manufacturer's instructions.
# [3] = rmCIRP 5 mg/kg co-incubated 30 min with test substance, r.o. injection
molecule,measurement,setting,value
B1,IL-6 levels in cell supernatants,[1],reduced levels
same,TNFα levels in cell supernatants,[1],reduced levels
same,serum IL-6 levels,[2]; [3],significantly reduced
same,serum TNFα levels,[2]; [3],significantly reduced
same,LDH levels (tissue injury),[2]; rmCIRP 5 mg/kg with rmMFG-E8 40 μg/kg,significantly reduced
